Kd, koff and kon data for five molecules are collected here from US20120034160A1 (AbbVie / Abbott, published 2012).

Sequences and labels used below:
T1: Recombinant Human IL-17 (human, UniProt Q16552 20-155, limits assumed)
T1 construct: bought reagent
T1 sequence (looked up): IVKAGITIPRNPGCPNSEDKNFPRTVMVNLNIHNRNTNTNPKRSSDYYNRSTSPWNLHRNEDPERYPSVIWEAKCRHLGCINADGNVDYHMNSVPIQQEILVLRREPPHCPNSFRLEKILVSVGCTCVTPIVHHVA

B1: DVD1269 (bispecific antibody, human IgG1, kappa)
heavy: not shown
light: DIQMTQSPSSLSASVGDRVTITCRASSGIISYIDWFQQKPGKAPKRLIYATFDLASGVPSRFSGSGSGTDYTLTISSLQPEDFATYYCRQVGSYPETFGQGTKLEIKRTVAAPDTVVTQSPAFLSVTPGEKVTITCITSTDIDVDMNWYQQKPDQPPKLLISQGNTLRPGVPSRFSSSGSGTDFTFTISSLEAEDAATYYCLQSDNLPLTFGQGTKLEIKRTVAAPSVFIFPPSDEQLKSGTASVVCLLNNFYPREAKVQWKVDNALQSGNSQESVTEQDSKDSTYSLSSTLTLSKADYEKHKVYACEVTHQGLSSPVTKSFNRGEC
notes: DVD-Ig, outer AB273, inner AB271, linker set 1; V1 wt hIgG1, V2 kappa; also called DVD1269H; DVD1269L
B2: DVD1267 (bispecific antibody, human IgG1, kappa)
heavy: not shown
light: DIQMTQSPSSLSASVGDRVTITCRASSGIISYIDWFQQKPGKAPKRLIYATFDLASGVPSRFSGSGSGTDYTLTISSLQPEDFATYYCRQVGSYPETFGQGTKLEIKRTVAAPDTQVTQSPSSLSASVGDRVTITCITSTDIDVDMNWYQQKPGKPPKLLISQGNTLRPGVPSRFSSSGSGTDFTFTISSLQPEDFATYYCLQSDNLPLTFGQGTKLEIKRTVAAPSVFIFPPSDEQLKSGTASVVCLLNNFYPREAKVQWKVDNALQSGNSQESVTEQDSKDSTYSLSSTLTLSKADYEKHKVYACEVTHQGLSSPVTKSFNRGEC
notes: DVD-Ig, outer AB273, inner AB270, linker set 1; V1 wt hIgG1, V2 kappa; also called DVD1267H; DVD1267L
B3: DVD1271 (bispecific antibody, human IgG1, kappa)
heavy: not shown
light: B2 light with D114E, Q116T
notes: DVD-Ig, outer AB273, inner AB272, linker set 1; V1 wt hIgG1, V2 kappa; also called DVD1271H; DVD1271L
B4: DVD1263 (bispecific antibody, human IgG1, kappa)
heavy: not shown
light: DIQMTQSPSSLSASVGDRVTITCRASSGIISYIDWFQQKPGKAPKRLIYATFDLASGVPSRFSGSGSGTDYTLTISSLQPEDFATYYCRQVGSYPETFGQGTKLEIKRTVAAPDIQMTQSPSSLSASVGDRVTITCRASGNIHNYLTWYQQTPGKAPKLLIYNAKTLADGVPSRFSGSGSGTDYTFTISSLQPEDIATYYCQHFWSIPYTFGQGTKLQITRTVAAPSVFIFPPSDEQLKSGTASVVCLLNNFYPREAKVQWKVDNALQSGNSQESVTEQDSKDSTYSLSSTLTLSKADYEKHKVYACEVTHQGLSSPVTKSFNRGEC
notes: V1 wt hIgG1, V2 kappa; also called DVD1263H; DVD1263L
B5: DVD1265 (bispecific antibody, human IgG1, kappa)
heavy: not shown
light: B4 light
notes: V1 wt hIgG1, V2 kappa; also called DVD1265H; DVD1265L

Numbering of substitutions follows the chain as printed. Bounds are passed on as bounds.

For the first assay, the target named is T1, Recombinant Human IL-17. Description: Biacore SPR; N-terminal VD. Here is the method: (§1) The BIACORE assay (Biacore, Inc, Piscataway, N.J.) determines the affinity of antibodies or DVD-Ig with kinetic measurements of on-rate and off-rate constants. Binding of antibodies or DVD-Ig to a target antigen (for example, a purified recombinant target antigen) was determined by surface plasmon resonance-based measurements with a Biacore® 1000 or 3000 instrument (Biacore® AB, Uppsala, Sweden) using running HBS-EP (10 mM HEPES [pH 7.4], 150 mM NaCl, 3 mM EDTA, and 0.005% surfactant P20) at 25° C. All chemicals were obtained from Biacore® AB (Uppsala, Sweden) or otherwise from a different source as described in the text. For example, approximately 5000 RU of goat anti-mouse IgG, (Fcγ), fragment specific polyclonal antibody (Pierce Biotechnology Inc, Rockford, Ill.) diluted in 10 mM sodium acetate (pH 4.5) was directly immobilized across a CM5 research grade biosensor chip using a standard amine coupling kit according to manufacturer's instructions and procedures at 25 μg/ml. Unreacted moieties on the biosensor surface were blocked with ethanolamine. Modified carboxymethyl dextran surface in flowcell 2 and 4 was used as a reaction surface. Unmodified carboxymethyl dextran without goat anti-mouse IgG in flow cell 1 and 3 was used as the reference surface. For kinetic analysis, rate equations derived from the 1:1 Langmuir binding model were fitted simultaneously to association and dissociation phases of all eight injections (using global fit analysis) with the use of Biaevaluation 4.0.1 software. Purified antibodies or DVD-Ig were diluted in HEPES-buffered saline for capture across goat anti-mouse IgG specific reaction surfaces. Antibodies or DVD-Ig to be captured as a ligand (25 μg/ml) were injected over reaction matrices at a flow rate of 5 μl/min. The association and dissociation rate constants, kₒₙ (M⁻¹s⁻¹) and koff (s⁻¹) were determined under a continuous flow rate of 25 μl/min. Rate constants were derived by making kinetic binding measurements at different antigen concentrations ranging from 10−200 nM. The equilibrium dissociation constant (M) of the reaction between antibodies or DVD-Igs and the target antigen was then calculated from the kinetic rate constants by the following formula: KD=koff/kₒₙ. Binding was recorded as a function of time and kinetic rate constants are calculated.
On the technique in general: Surface plasmon resonance follows binding to a sensor surface in real time, without labels.
Turning to B1, the Kd (as a rule, a measure of binding affinity in units of concentration) came out at 0.032 nM; the koff (commonly a measure of how fast the partners let go of each other) amounted to 5e-06 s⁻¹; the kon (as a rule, a measure of how fast the partners come together) amounted to 160000 M⁻¹ s⁻¹.

For the molecule B2, the Kd is at most 0.066 nM, the koff is at most 1e-05 s⁻¹ and the kon was 150000 M⁻¹ s⁻¹.

On to B3, for which the Kd stood at 0.11 nM, the koff stood at 1.2e-05 s⁻¹ and the kon stood at 110000 M⁻¹ s⁻¹.

As to B4, the Kd was determined as 0.061 nM, the koff came out at 7.8e-06 s⁻¹ and the kon amounted to 130000 M⁻¹ s⁻¹.

On to B5, for which the Kd was found to be 0.096 nM, the koff is 1.1e-05 s⁻¹ and the kon is 120000 M⁻¹ s⁻¹.

A further assay has as its target T2, Recombinant Human IL-1β (human, UniProt P01584 117-269).
T2 construct: bought reagent; also called IL-1B
Description: Biacore SPR; C-terminal VD. As to the method: as §1
Turning to B1, the Kd was 1.1 nM, the koff is 0.00043 s⁻¹ and the kon amounted to 400000 M⁻¹ s⁻¹.

As to B2, the Kd worked out at 1.1 nM, the koff was 0.00041 s⁻¹ and the kon is 370000 M⁻¹ s⁻¹.

For B3, the Kd amounted to 2.2 nM, the koff amounted to 0.00071 s⁻¹ and the kon stood at 320000 M⁻¹ s⁻¹.

Consider B4, for which the dissociation constant (Kd) turned out to be 0.17 nM, the dissociation rate constant (koff) turned out to be 0.00015 s⁻¹ and the kon is 890000 M⁻¹ s⁻¹.

B5: the Kd was 0.088 nM, the koff is 0.0003 s⁻¹ and the kon came to 3.4e+06 M⁻¹ s⁻¹.
